This note sets out measurements from patent publication US20090042235A1, “PHOTOREGULATED PEPTIDE, AND METHOD FOR REGULATION OF PEPTIDE-PROTEIN COMPLEX FORMATION USING THE PHOTOREGULATED PEPTIDE” (priority 2005, published 2009).

This test addresses T1, PI3-Kα SH3 domain (Homo sapiens, UniProt P27986).
T1 construct: As a functional protein, an SH3 domain protein of PI3-Kα was used
Kind of test: Circular dichroism (CD) differential spectra of peptide / PI3-Kα SH3 domain mixtures: photoregulation of peptide-protein complex formation. The class given is binding. As to the method: As a functional protein, an SH3 domain protein of PI3-Kα was used. The PI3-Kα SH3 domain interacts with RLP1. The peptide having an intramolecular cross-linkage obtained in the manner as described above and the PI3-Kα SH3 domain were mixed in 10 mM phosphate buffer solution (pH 7.0), to obtain Mixture solution (I) in which the concentration of the peptide having an intramolecular cross-linkage was 100 microM and that of the PI3-Kα SH3 domain was 20 microM.
Then, Mixture solution (I) was irradiated with UV light. Irradiation was performed by using Minilite II manufactured by Continuum as a UV irradiator, with pulsed light at wavelength of 355 nm (third harmonic of Nd-YAG laser, pulse width 5 ns, 10 Hz, pulse intensity 4 mJ/cm^2) at 4° C. for 30 minutes. By UV irradiation, either one of the bonds between cysteine and DBMNB in the peptide having an intramolecular cross-linkage was cleaved. This was named Mixture solution (II).
Used sample solutions are shown below.
(i) Mixture solution (I) (ii) Mixture solution (II) (iii) Uncross-linked peptide RLP1 100 microM (10 mM phosphate buffer solution, pH 7.0) (iv) Peptide having an intramolecular cross-linkage (not irradiated with UV light) 100 microM (10 mM phosphate buffer solution, pH 7.0) (v) PI3-Kα SH3 domain 20 microM (10 mM phosphate buffer solution, pH 7.0) (vi) Mixture solution prepared by mixing an uncross-linked peptide RLP1 and a PI3-Kα SH3 domain in 10 mM phosphate buffer solution (pH 7.0), so that the concentration of the uncross-linked peptide is 100 microM and that of the PI3-Kα SH3 domain is 20 microM.
The horizontal axis of the graph represents wavelength of circularly polarized light (Wavelength/nm), and the vertical axis represents intensity of circular dichroism (Δθ/mdeg). In the graph of FIG. 7, “dark” represents different-al spectrum obtained by subtracting CD spectrum (iv) of the peptide having an intramolecular cross-linkage and CD spectrum (v) of the PI3-Kα SH3 domain from CD spectrum (i) of Mixture solution (I). Further, “light” represents differential spectrum obtained by subtracting CD spectrum (i) of Mixture solution (I) from CD spectrum (ii) of Mixture solution (II).
(In general: Circular dichroism is the unequal absorption of left and right circularly polarised light.)

Bridge positions count the residues as written; N and C are the ends. Ends that are not written are not given here. DBMNB = photocleavable intramolecular cysteine cross-linker

T1 sequence (P27986 3-79 limits assumed): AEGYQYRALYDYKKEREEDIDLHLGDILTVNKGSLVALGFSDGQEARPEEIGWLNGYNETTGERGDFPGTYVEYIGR

For the substance RKLPPRSK [RLP1, reference compound], under “uncross-linked peptide 100 microM, SH3 domain 20 microM, 10 mM phosphate buffer pH 7.0, no irradiation”, the “differential CD spectrum of mixture with PI3-Kα SH3 domain minus peptide and SH3 domain spectra (peak ascribable to formation of complex)” value was “positive peak was observed around 220 nm”.
“peptide having an intramolecular cross-linkage: RLP1-2C (Cys Arg Lys Leu Pro Pro Arg Ser Lys Cys) intramolecularly cross-linked between its cysteines via photocleavable DBMNB, cyclic (CRKLPPRSKC; linker 1-10 via DBMNB)”: for the setting “Mixture solution (I), not irradiated, peptide 100 microM, SH3 domain 20 microM, 10 mM phosphate buffer pH 7.0, room temperature”, the “interaction with specific recognizing site of the PI3-Kα SH3 domain (differential CD spectrum "dark")” value is “no interaction”. For the same substance, the “differential CD spectrum "light" (Mixture solution (II) minus Mixture solution (I))” value (after UV irradiation 355 nm pulsed light, 4° C., 30 minutes, peptide 100 microM, SH3 domain 20 microM, pH 7.0) was “positive peak was observed around 220 nm”. Also, for the setting “after UV irradiation (cyclic structure dissociated)”, the “complex formation with PI3-Kα SH3 domain” value is “forms a complex”.
